Measured values as given in patent US7407783B2, “Fructosylamine oxidase” (priority 2002, dated 2008).
Entries after “also recorded” stand apart in the source; their conditions may differ.

Key:
FAO-Q2 = test: Substrate specificity of FAO-Q2 (FAO activity, rate method, H2O2 colorimetry); format: biochemical, Fusarium proliferatum; conditions: for Relative activity (%) FAO-Q2: activity of FAO-Q2 on the substrate, FV = 100
Procedure: (§1) Titration of enzyme can be performed by a method known in the art (e.g., kinetic method), for example, that described in Example 1 (3). In this method, hydrogen peroxide generated by the reaction of an FAO with a glycated amino acid or peptide is measured on the basis of absorbance (505 nm) of quinone pigment produced in the presence of hydrogen peroxide. The amount (μmole) of hydrogen peroxide generated per minute is calculated on the basis of molar absorptivity (5.16×10^3 M^−1 cm^−1) of quinone pigment and the resultant numerical value is taken as a unit (U) of enzyme activity.
(§2) FAO activity of the crude enzyme solution was determined by the aforementioned rate method. The time-course of generation of hydrogen peroxide in the reaction mixture below was measured by a colorimetric method, and FAO activity was evaluated.
(§3) A mixture (total 3 ml) except for the enzyme solution was equilibrated at 30° C. After adding the enzyme solution, the time-course of absorbance at 505 nm was measured. The amount (μmole) of hydrogen peroxide generated per minute was calculated on the basis of molar absorptivity (5.16×10^3 M^−1 cm^−1) of quinone pigment produced, and the resultant numerical value was taken as a unit(U) of enzyme activity. As a result, a strain having FAO was obtained.
The substrate specificity of the enzymes (FAO-Q1, FAO-Q2) contained in 2 fractions separated in (1), 3) above was determined. The FAO activity was measured using the respective two fractions as an enzyme solution according to the method described in Example 1(3). As a substrate, FV, FVH, FVHL, FVL, FVLS and FZL were used.

FAO-Q1 = FAO-Q1 (Fusarium proliferatum, UniProt A0A1L7VP54); test: Substrate specificity of FAO-Q1 (FAO activity, rate method, H2O2 colorimetry); format: biochemical
Procedure: as §1, §2
as §3, with “As a result, a strain having FAO was obtained.” left out
The substrate specificity of the enzymes (FAO-Q1, FAO-Q2) contained in 2 fractions separated in (1), 3) above was determined. […]

[1] = test system: O=C(N[C@@H](CCCCNCC1(O)OC[C@@H](O)[C@@H](O)[C@@H]1O)C(=O)O)OCc1ccccc1; test: cells, lysate or membranes named; conditions: other: substrate FV or FZL; 30.0 °C
Source text: Michaelis constant for respective substrates can be determined by measuring the initial reaction rate in the process for determination of titer as described above while keeping the conditions regarding enzyme concentration, pH, temperature, and the like constant and changing only the concentration of substrate.

[2] = test system: CC(C)[C@H](NCC1(O)OC[C@@H](O)[C@@H](O)[C@@H]1O)C(=O)O; test: cells, lysate or membranes named; conditions: other: substrate FV or FZL; 30.0 °C
[3] = FAO activity of Resource Q fractions using FV as a substrate; format: biochemical, Fusarium proliferatum; conditions: Resource Q fraction
Procedure: as §2, §3
The ammonium sulfate fraction after dialysis was subjected to chromatography under the following conditions.
Measurement of activity was performed in a similar manner to that described in Example 1 (3). FAOs contained in these fractions are herein referred to as “FAO-Q1” and “FAO-Q2”.

[4] = Determination of optimum temperature for stability of enzyme; format: physicochemical, Fusarium proliferatum; conditions: incubated in 0.1 M Tris-HCl buffer (pH 8.0) at 30-65° C. for 10 minutes
Procedure: Temperature conditions for the enzyme were determined by incubating FAO-Q1 or FAO-Q2 in 0.1 M Tris-HCl buffer (pH 8.0) at a temperature between 30 and 65° C. for 10 minutes, and measuring the activity under normal conditions.

[5] = Determination of optimum pH of the enzyme reaction; format: biochemical, Fusarium proliferatum; conditions: pH 3.5-10.0 tested, at 30° C.
Procedure: Enzyme reaction was conducted under different pH conditions between 3.5 and 10.0 according to the method for determination of activity as described above.
The buffers used were 100 mM acetate buffer at pH range of 3.5-6.0, 100 mM potassium phosphate buffer at pH range of 6.0-8.0, 100 mM Tris-HCl buffer (pH range of 7.0-9.0) and 100 mM glycin-NaOH buffer at pH range of 9.0-10.0.

Row | Molecule | Relative activity (%) FAO-Q2 (FAO-Q2) [%] | Activity of FAO-Q2 on the substrate (in words) (FAO-Q2) | specific activity(U/mg) [3] [U/mg] | Optimum temperature for stability of enzyme [4] | Optimum pH for enzyme reaction [5] | further results
1 | fructosyl valine-leucine-serine (VLS) [FVLS] | 3.3 |  |  |  |  | 
2 | O=C(N[C@@H](CCCCNCC1(O)OC[C@@H](O)[C@@H](O)[C@@H]1O)C(=O)O)OCc1ccccc1 (stereo partly shown) [FZL] |  | inactive and not |  |  |  | Activity of FAO-Q1 on the substrate (in words) (FAO-Q1): almost equally active; also recorded: almost the same activity; Relative activity (%) FAO-Q1 (FAO-Q1; activity of FAO-Q1 on the substrate, FV = 100): 108%
3 | FAO-Q1 (Fusarium proliferatum ET1) |  |  |  |  |  | Km [1]: 560 µM; Km [2]: 620 µM
4 | fructosyl valine-histidine-leucine (VHL) [FVHL] | 0.6 | active |  |  |  | 
5 | FAO-Q1: fructosylamine oxidase from Fusarium proliferatum GL2-1, Resource Q fraction Q1; amino acid sequence SEQ ID NO: 4 (protein, listed as Fusarium proliferatum) MAGPPSSILIVGSGVFGLGTAWALAKRSHFSNTSITVVDDCAGQFPPEDAASVDSSRIVRADYSDPYYAALAAEAQKEWRKQGDHEVGGQGRYSESGFVLCASETPEDFKLKKSGMDYTKESAKNVELIAKETGLPVDKIQKLESTKALQEFLGTDGYPGDWGYLNGNSGWADAGEGMKWLYKQAQATGRIHFVNGKVTELVTEGDRVIGAKLSDSKILKADVVMVAAGAWSGSLVDLRGRTEATGHAVAYMDITPEEQKRLDNFPVVLNLSTGLFLIPPRNNVLKAARHTFGYINPVKINNALPPSPNDKREPFIASQPYTSRNDSSNPLTVEADKDLRRALTDLCPIRGLETRPWKEARICWYSDTRDGEWLIDYHPGWKGLFVATGDSGHGFKFLPNLGEKIVDVMQGQGGKLGEKWRWKEIQNDGVGRETNGVYTGLVTEDGSRGGRPLVLCDELEKGRALIGNTKAKL |  |  | 0.3 | 30-40 °C | about 7.5 | Optimum pH for enzyme reaction ([5]; listed as FAO-O 1): 7.5
6 | FAO-Q2: fructosylamine oxidase from Fusarium proliferatum GL2-1, Resource Q fraction Q2; amino acid sequence SEQ ID NO: 6 (protein, listed as Fusarium proliferatum) MARTVAPLNKDSGILIVGGGTWGCSTALHLARRGYTNVTVLDVNRIPSPISAGHDVNKLSNRLGTSDSKGDDEDSIWKALTYAAAQGWLHDPIFQPFCHNTGAVMAGSTPKSIKQLVEDEIGDDIDQYTPLNTAEDFRRTMPERILTGDFLGWKGFYKPRGSGWVHARKAMKAAFEESQRLGVKFITGSPEGKVESLVFEAGDVKGAKTADGKEHRADRTILSAGASAEFSLDFENQIRPTAWTLGHIQMTAEETKLYKELPPLFNINQGFFMEPDEDLHQLKMCDEHPGYCNWVDKPGSKYPQSIPFAKYQVPIEAERRMKQFLKDIMPQLADRPLVHARICWCADTQDRMFLITYHPRHPSLVIASGDCGTGYKHITSIGKFISDCMEGTLEERFAKFWRWRPEKFTEFWGKDPLDRFGADDKIMDLPKSDAEGWTDIQNDK |  |  | 0.067 | 30-40 °C | about 7.0 | Optimum pH for enzyme reaction ([5]; listed as FAO-O2): 7
